Columns and labels:
KSR = biological target: T1, KSR (Mus musculus, UniProt Q61097); experiment: KSR autophosphorylation after treatment of COS-7 cells expressing KSR; format: cell-based, mouse (KSR expressed in COS-7 cells); details: COS-7 cells, preliminary
T1 sequence (Q61097 1-873): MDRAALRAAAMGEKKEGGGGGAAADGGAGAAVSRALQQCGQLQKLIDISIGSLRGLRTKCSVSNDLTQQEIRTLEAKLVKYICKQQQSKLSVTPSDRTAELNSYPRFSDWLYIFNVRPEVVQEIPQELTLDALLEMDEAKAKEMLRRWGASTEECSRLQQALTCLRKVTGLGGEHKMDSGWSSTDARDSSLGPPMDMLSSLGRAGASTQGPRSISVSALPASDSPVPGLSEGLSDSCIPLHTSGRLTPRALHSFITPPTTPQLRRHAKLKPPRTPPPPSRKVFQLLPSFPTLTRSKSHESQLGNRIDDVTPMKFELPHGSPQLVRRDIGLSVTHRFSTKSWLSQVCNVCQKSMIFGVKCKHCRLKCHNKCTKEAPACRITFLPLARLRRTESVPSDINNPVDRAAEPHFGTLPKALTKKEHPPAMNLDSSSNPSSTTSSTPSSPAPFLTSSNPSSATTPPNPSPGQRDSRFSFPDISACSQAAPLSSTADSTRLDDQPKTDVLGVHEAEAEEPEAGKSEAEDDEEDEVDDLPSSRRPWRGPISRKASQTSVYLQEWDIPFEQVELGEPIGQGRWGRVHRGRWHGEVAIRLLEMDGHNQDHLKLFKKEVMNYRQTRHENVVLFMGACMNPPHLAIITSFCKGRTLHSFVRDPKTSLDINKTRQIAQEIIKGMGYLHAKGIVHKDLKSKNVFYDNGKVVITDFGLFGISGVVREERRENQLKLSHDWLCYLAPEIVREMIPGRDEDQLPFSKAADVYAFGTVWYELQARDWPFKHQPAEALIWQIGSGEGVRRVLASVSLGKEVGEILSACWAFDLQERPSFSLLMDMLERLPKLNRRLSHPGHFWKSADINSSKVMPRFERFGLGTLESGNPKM
Method: FIG. 23A--COS-7 cells were transfected as in FIG. 22A and placed in serum-free medium. After 4 hours, cells were stimulated for 10 min with the ceramide analog, C2-ceramide (Biomol), at the concentrations indicated. Cells were lysed with NP-40 lysis buffer, and Flag-tagged KSR (0.8 mg protein for each point) was immunoprecipitated and assayed for autophosphorylation activity as described in Experimental Procedures. The autoradiogram was exposed for 1 hour. KSR is expressed at similar levels in each sample as monitored by Western blot (data not shown). Data represent one of three similar experiments.
COS-7 cells expressing Flag-tagged KSR were stimulated with 10 nM TNFα for the times indicated and lysed with NP-40 buffer as in FIG. 2A. […] The autoradiogram was exposed for 1 hour. Data represent one of three similar experiments.
KSR was immunoprecipitated as above from 0.8 mg NP-40 lysate protein with 40 μl agarose-conjugated anti-Flag antibody at 4° C. for 4 hrs or overnight. […] The reaction was stopped by addition of Laemmli sample buffer. Samples were resolved by 7.5% sodium dodecyl sulfate-polyacrylamide gel electrophoresis (SDS-PAGE) and autoradiographed.

Raf-1 [1] = experiment: Activation of Raf-1 by KSR in vitro (MEK1 phosphorylation)
Raf-1 [2] = experiment: Raf-1 activity after co-expression with KSR in COS-7 cells; format: cell-based, human (Raf-1 expressed in COS-7 cells)
Method: Some studies used untagged KSR (n=4) and yielded identical results. At 60 hours post-transfection, cells were lysed with RIPA buffer (NP-40 buffer containing 0.1% SDS and 0.1% deoxy cholate). […] […]. The samples were boiled for 5 min, resolved with SDS-PAGE (7.5%) and autoradiographed.
[…]. After 30 min, the reaction was stopped by addition of Laemmli sample buffer and phosphorylated MBP were resolved by 15% SDS-PAGE, prior to autoradiography.
; a kind gift of Dr. Natalie Ahn) or 1.25 μg recombinant human MEK1 (Santa Cruz), 0.625 μg recombinant human ERK1 (UBI) and myelin basic protein (MBP). After 20-30 min, the reaction was stopped by addition of SDS sample buffer. […]

B1: EGF: EGF (protein, UniProt P01133 23-1207, looked up)
Pro-epidermal growth factor: PQHWSCPEGTLAGNGNSTCVGPAPFLIFSHGNSIFRIDTEGTNYEQLVVDAGVSVIMDFHYNEKRIYWVDLERQLLQRVFLNGSRQERVCNIEKNVSGMAINWINEEVIWSNQQEGIITVTDMKGNNSHILLSALKYPANVAVDPVERFIFWSSEVAGSLYRADLDGVGVKALLETSEKITAVSLDVLDKRLFWIQYNREGSNSLICSCDYDGGSVHISKHPTQHNLFAMSLFGDRIFYSTWKMKTIWIANKHTGKDMVRINLHSSFVPLGELKVVHPLAQPKAEDDTWEPEQKLCKLRKGNCSSTVCGQDLQSHLCMCAEGYALSRDRKYCEDVNECAFWNHGCTLGCKNTPGSYYCTCPVGFVLLPDGKRCHQLVSCPRNVSECSHDCVLTSEGPLCFCPEGSVLERDGKTCSGCSSPDNGGCSQLCVPLSPVSWECDCFPGYDLQLDEKSCAASGPQPFLLFANSQDIRHMHFDGTDYGTLLSQQMGMVYALDHDPVENKIYFAHTALKWIERANMDGSQRERLIEEGVDVPEGLAVDWIGRRFYWTDRGKSLIGRSDLNGKRSKIITKENISQPRGIAVHPMAKRLFWTDTGINPRIESSSLQGLGRLVIASSDLIWPSGITIDFLTDKLYWCDAKQSVIEMANLDGSKRRRLTQNDVGHPFAVAVFEDYVWFSDWAMPSVMRVNKRTGKDRVRLQGSMLKPSSLVVVHPLAKPGADPCLYQNGGCEHICKKRLGTAWCSCREGFMKASDGKTCLALDGHQLLAGGEVDLKNQVTPLDILSKTRVSEDNITESQHMLVAEIMVSDQDDCAPVGCSMYARCISEGEDATCQCLKGFAGDGKLCSDIDECEMGVPVCPPASSKCINTEGGYVCRCSEGYQGDGIHCLDIDECQLGEHSCGENASCTNTEGGYTCMCAGRLSEPGLICPDSTPPPHLREDDHHYSVRNSDSECPLSHDGYCLHDGVCMYIEALDKYACNCVVGYIGERCQYRDLKWWELRHAGHGQQQKVIVVAVCVVVLVMLLLLSLWGAHYYRTQKLLSKNPKNPYEESSRDVRSRRPADTEDGMSSCPQPWFVVIKEHQDLKNGGQPVAGEDGQAADGSMQPTSWRQEPQLCGMGTEQGCWIPVSSDKGSCPQVMERSFHMPSYGTQTLEGGVEKPHSLLSANPLWQQRALDPPHQMELTQ
modifications: Pro-epidermal growth factor
activation of KSR/CAP kinase (KSR): does not activate KSR/CAP kinase

B2: KSR: mouse kinase suppressor of ras, Flag-tagged (protein, UniProt Q61097 1-873, looked up)
Kinase suppressor of Ras 1: MDRAALRAAAMGEKKEGGGGGAAADGGAGAAVSRALQQCGQLQKLIDISIGSLRGLRTKCSVSNDLTQQEIRTLEAKLVKYICKQQQSKLSVTPSDRTAELNSYPRFSDWLYIFNVRPEVVQEIPQELTLDALLEMDEAKAKEMLRRWGASTEECSRLQQALTCLRKVTGLGGEHKMDSGWSSTDARDSSLGPPMDMLSSLGRAGASTQGPRSISVSALPASDSPVPGLSEGLSDSCIPLHTSGRLTPRALHSFITPPTTPQLRRHAKLKPPRTPPPPSRKVFQLLPSFPTLTRSKSHESQLGNRIDDVTPMKFELPHGSPQLVRRDIGLSVTHRFSTKSWLSQVCNVCQKSMIFGVKCKHCRLKCHNKCTKEAPACRITFLPLARLRRTESVPSDINNPVDRAAEPHFGTLPKALTKKEHPPAMNLDSSSNPSSTTSSTPSSPAPFLTSSNPSSATTPPNPSPGQRDSRFSFPDISACSQAAPLSSTADSTRLDDQPKTDVLGVHEAEAEEPEAGKSEAEDDEEDEVDDLPSSRRPWRGPISRKASQTSVYLQEWDIPFEQVELGEPIGQGRWGRVHRGRWHGEVAIRLLEMDGHNQDHLKLFKKEVMNYRQTRHENVVLFMGACMNPPHLAIITSFCKGRTLHSFVRDPKTSLDINKTRQIAQEIIKGMGYLHAKGIVHKDLKSKNVFYDNGKVVITDFGLFGISGVVREERRENQLKLSHDWLCYLAPEIVREMIPGRDEDQLPFSKAADVYAFGTVWYELQARDWPFKHQPAEALIWQIGSGEGVRRVLASVSLGKEVGEILSACWAFDLQERPSFSLLMDMLERLPKLNRRLSHPGHFWKSADINSSKVMPRFERFGLGTLESGNPKM
modifications: Flag tag
notes: mouse kinase suppressor of ras, Flag-tagged
direct effect on MEK or ERK (Raf-1 [1]): no direct effect
Raf-1 activation in COS-7 cells co-expressing KSR (Raf-1 [2]): marked increase in Raf-dependent MEK1 phosphorylation

From patent US6040149A, “Assay for identifying agents which act on the ceramide-activated protein kinase, kinase suppressor of ras, and methods of using said agents” (priority 1997, dated 2000)
